Earlier results as cited in publication PMC4754043 (Human Molecular Genetics, 2015).

System: human transmitochondrial cybrid cells and yeast with mt-tRNA mutations
Conditions: human cybrids and yeast; ref [9],[10],[11]

B1: mt-ValRS: mt-valyl-tRNA synthetase (protein, UniProt Q5ST30 27-1063, looked up)
Valine--tRNA ligase, …: SVSTQSEPHGSPISRRNREAKQKRLREKQATLEAEIAGESKSPAESIKAWRPKELVLYEIPTKPGEKKDVSGPLPPAYSPRYVEAAWYPWWVREGFFKPEYQARLPQATGETFSMCIPPPNVTGSLHIGHALTVAIQDALVRWHRMRGDQVLWVPGSDHAGIATQAVVEKQLWKERGVRRHELSREAFLREVWQWKEAKGGEICEQLRALGASLDWDRECFTMDVGSSVAVTEAFVRLYKAGLLYRNHQLVNWSCALRSAISDIEVENRPLPGHTQLRLPGCPTPVSFGLLFSVAFPVDGEPDAEVVVGTTRPETLPGDVAVAVHPDDSRYTHLHGRQLRHPLMGQPLPLITDYAVQPHVGTGAVKVTPAHSPADAEMGARHGLSPLNVIAEDGTMTSLCGDWLQGLHRFVAREKIMSVLSEWGLFRGLQNHPMVLPICSRSGDVIEYLLKNQWFVRCQEMGARAAKAVESGALELSPSFHQKNWQHWFSHIGDWCVSRQLWWGHQIPAYLVVEDHAQGEEDCWVVGRSEAEAREVAAELTGRPGAELTLERDPDVLDTWFSSALFPFSALGWPQETPDLARFYPLSLLETGSDLLLFWVGRMVMLGTQLTGQLPFSKVLLHPMVRDRQGRKMSKSLGNVLDPRDIISGVEMQVLQEKLRSGNLDPAELAIVAAAQKKDFPHGIPECGTDALRFTLCSHGVQAGDLHLSVSEVQSCRHFCNKIWNALRFILNALGEKFVPQPAEELSPSSPMDAWILSRLALAAQECERGFLTRELSLVTHALHHFWLHNLCDVYLEAVKPVLWHSPRPLGPPQVLFSCADLGLRLLAPLMPFLAEELWQRLPPRPGCPPAPSISVAPYPSACSLEHWRQPELERRFSRVQEVVQVLRALRATYQLTKARPRVLLQSSEPGDQGLFEAFLEPLGTLGYCGAVGLLPPGAAAPSGWAQAPLSDTAQVYMELQGLVDPQIQLPLLAARRYKLQKQLDSLTARTPSEGEAGTQRQQKLSSLQLELSKLDKAASHLRQLMDEPPAPGSPEL
For B1, the “rescue of defects due to mutations in non-cognate as well as cognate mt-tRNAs” value is given as “able to rescue”.
